Specific binding as percent of total binding, duration of p185 phosphorylation after the ligand is washed out (1 nM, 45 min treatment), chick myotubes and erbB receptor (p185) tyrosine phosphorylation on chick myotubes, 45 min, anti-phosphotyrosine western blot; potency relative to the EGF form data for two substances are collected here from patent US20050107601A1.

Test [1] concerns the target erbB receptors on primary chick myotube cultures. As to the kind of experiment: radioligand binding: 0.1 nM 125I-IG-EGF on chick myotubes, 2 hrs on ice, with or without 1 µM cold IG-EGF; cpm bound.
Test [2] shares this target. Description: cell-based or functional assay.

Where only a bound is given, the exact number is not on record here.

In test [1], “Recombinant human NRG IG-EGF domain construct (amino acids 14-246 of the human β1 form) (from UniProt Q02297 14-246) (ligand)” came in with a specific binding as percent of total binding of 25%. In test [2], this substance yielded a duration of p185 phosphorylation after the ligand is washed out (1 nM, 45 min treatment), chick myotubes of 8 h and an erbB receptor (p185) tyrosine phosphorylation on chick myotubes, 45 min, anti-phosphotyrosine western blot; potency relative to the EGF form of 4 fold.
In test [2], “Recombinant human NRG isolated EGF-like domain construct (amino acids 177-246 of the human β1 form) (from UniProt Q02297 177-246) (ligand)” yielded a duration of p185 phosphorylation after the ligand is washed out (1 nM, 45 min treatment), chick myotubes below 1 h.
